± gives the uncertainty stated by the source.

Sequences and labels used below:
B1: RUN and FYVE domain-containing protein 1, residues 639 to 698; numbered along this chain, Q96T51 (parent)
chain: WLKDDEATHCRQCEKEFSISRRKHHCRNCGHIFCNTCSSNELALPSYPKPVRVCDSCHTL

In this series the parent is B1. Put plainly: abundance fitness (aPCA) (normalised: wild type 0, dead -1); higher = more abundant; growth selection in yeast, the domain comes from the species named. As to conditions: Homo sapiens.
On to WLKDDEATHCRQCEKEHSISRRKHHCRNCGHIFCNTCSSNELALPSYPKPVRVCDSCHTL, for which the abundance fitness was -0.65 ± 0.12.

In the case of WLKDDEATHCRQCEKEISISRRKHHCRNCGHIFCNTCSSNELALPSYPKPVRVCDSCHTL, the abundance fitness was -0.397 ± 0.12. For the variant WLKDDEATHCRQCEKEFSRSRRKHHCRNCGHIFCNTCSSNELALPSYPKPVRVCDSCHTL, the abundance fitness was -0.065 ± 0.045. Regarding WLKDDEATHCRQCEKEFSNSRRKHHCRNCGHIFCNTCSSNELALPSYPKPVRVCDSCHTL, the abundance fitness was -0.001 ± 0.052. With WLKDDEATHCRQCEKEFSVSRRKHHCRNCGHIFCNTCSSNELALPSYPKPVRVCDSCHTL the figure was -0.102 ± 0.045; with WLKDDEATHCRQCEKEFSFSRRKHHCRNCGHIFCNTCSSNELALPSYPKPVRVCDSCHTL, -0.136 ± 0.046. With WLKDDEATHCRQCEKEFSKSRRKHHCRNCGHIFCNTCSSNELALPSYPKPVRVCDSCHTL the figure was 0.073 ± 0.079; with WLKDDEATHCRQCEKEFSTSRRKHHCRNCGHIFCNTCSSNELALPSYPKPVRVCDSCHTL, 0.095 ± 0.042. For WLKDDEATHCRQCEKEFSCSRRKHHCRNCGHIFCNTCSSNELALPSYPKPVRVCDSCHTL, the abundance fitness was -1.15 ± 0.23. Regarding WLKDDEATHCRQCEKEFSESRRKHHCRNCGHIFCNTCSSNELALPSYPKPVRVCDSCHTL, the abundance fitness turned out to be 0.228 ± 0.067. Consider WLKDDEATHCRQCEKEFSLSRRKHHCRNCGHIFCNTCSSNELALPSYPKPVRVCDSCHTL, for which the abundance fitness was -0.038 ± 0.038. As for WLKDDEATHCRQCEKEFSSSRRKHHCRNCGHIFCNTCSSNELALPSYPKPVRVCDSCHTL, the figure is -0.048 ± 0.035; as for WLKDDEATHCRQCEKEFSQSRRKHHCRNCGHIFCNTCSSNELALPSYPKPVRVCDSCHTL, 0.094 ± 0.047. As for WLKDDEATHCRQCEKEFSASRRKHHCRNCGHIFCNTCSSNELALPSYPKPVRVCDSCHTL, the figure is -0.177 ± 0.048; as for WLKDDEATHCRQCEKEFSYSRRKHHCRNCGHIFCNTCSSNELALPSYPKPVRVCDSCHTL, -0.341 ± 0.055.

As for WLKDDEATHCRQCEKEFSPSRRKHHCRNCGHIFCNTCSSNELALPSYPKPVRVCDSCHTL, the abundance fitness was -0.034 ± 0.045. As for WLKDDEATHCRQCEKEFSHSRRKHHCRNCGHIFCNTCSSNELALPSYPKPVRVCDSCHTL, the figure is -0.036 ± 0.039; as for WLKDDEATHCRQCEKEFSMSRRKHHCRNCGHIFCNTCSSNELALPSYPKPVRVCDSCHTL, -0.006 ± 0.061. In the case of WLKDDEATHCRQCEKEFSDSRRKHHCRNCGHIFCNTCSSNELALPSYPKPVRVCDSCHTL, the abundance fitness is -0.014 ± 0.058. With WLKDDEATHCRQCEKEFSWSRRKHHCRNCGHIFCNTCSSNELALPSYPKPVRVCDSCHTL the figure was -0.846 ± 0.14; with WLKDDEATHCRQCEKEFSISFRKHHCRNCGHIFCNTCSSNELALPSYPKPVRVCDSCHTL, -0.265 ± 0.06.

On to WLKDDEATHCRQCEKEFSISARKHHCRNCGHIFCNTCSSNELALPSYPKPVRVCDSCHTL, for which the abundance fitness was -0.04 ± 0.039. With WLKDDEATHCRQCEKEFSISTRKHHCRNCGHIFCNTCSSNELALPSYPKPVRVCDSCHTL the figure was 0.13 ± 0.039; with WLKDDEATHCRQCEKEFSISQRKHHCRNCGHIFCNTCSSNELALPSYPKPVRVCDSCHTL, -0.069 ± 0.047; with WLKDDEATHCRQCEKEFSISLRKHHCRNCGHIFCNTCSSNELALPSYPKPVRVCDSCHTL, -0.195 ± 0.03. With WLKDDEATHCRQCEKEFSISIRKHHCRNCGHIFCNTCSSNELALPSYPKPVRVCDSCHTL, the abundance fitness is -0.227 ± 0.07. With WLKDDEATHCRQCEKEFSISPRKHHCRNCGHIFCNTCSSNELALPSYPKPVRVCDSCHTL the figure was -0.503 ± 0.074. With WLKDDEATHCRQCEKEFSISDRKHHCRNCGHIFCNTCSSNELALPSYPKPVRVCDSCHTL the figure was -1.25 ± 0.24; with WLKDDEATHCRQCEKEFSISHRKHHCRNCGHIFCNTCSSNELALPSYPKPVRVCDSCHTL, -0.434 ± 0.079; with WLKDDEATHCRQCEKEFSISYRKHHCRNCGHIFCNTCSSNELALPSYPKPVRVCDSCHTL, -0.801 ± 0.16.

Take WLKDDEATHCRQCEKEFSISCRKHHCRNCGHIFCNTCSSNELALPSYPKPVRVCDSCHTL: the abundance fitness was -1.14 ± 0.31. For the variant WLKDDEATHCRQCEKEFSISKRKHHCRNCGHIFCNTCSSNELALPSYPKPVRVCDSCHTL, the abundance fitness is -0.184 ± 0.055. For WLKDDEATHCRQCEKEFSISGRKHHCRNCGHIFCNTCSSNELALPSYPKPVRVCDSCHTL, the abundance fitness is -0.278 ± 0.047. With WLKDDEATHCRQCEKEFSISWRKHHCRNCGHIFCNTCSSNELALPSYPKPVRVCDSCHTL, the abundance fitness was -1.06 ± 0.13. As for WLKDDEATHCRQCEKEFSISNRKHHCRNCGHIFCNTCSSNELALPSYPKPVRVCDSCHTL, the figure is -0.711 ± 0.2; as for WLKDDEATHCRQCEKEFSISSRKHHCRNCGHIFCNTCSSNELALPSYPKPVRVCDSCHTL, -0.355 ± 0.045.

Regarding WLKDDEATHCRQCEKEFSISMRKHHCRNCGHIFCNTCSSNELALPSYPKPVRVCDSCHTL, the abundance fitness is -0.239 ± 0.045. With WLKDDEATHCRQCEKEFSISVRKHHCRNCGHIFCNTCSSNELALPSYPKPVRVCDSCHTL the figure was -0.054 ± 0.036. With WLKDDEATHCRQCEKEFSISRCKHHCRNCGHIFCNTCSSNELALPSYPKPVRVCDSCHTL the figure was -0.494 ± 0.071; with WLKDDEATHCRQCEKEFSISRAKHHCRNCGHIFCNTCSSNELALPSYPKPVRVCDSCHTL, -0.102 ± 0.045; with WLKDDEATHCRQCEKEFSISREKHHCRNCGHIFCNTCSSNELALPSYPKPVRVCDSCHTL, 0.014 ± 0.045. As for WLKDDEATHCRQCEKEFSISRIKHHCRNCGHIFCNTCSSNELALPSYPKPVRVCDSCHTL, the figure is -0.1 ± 0.065.

Take WLKDDEATHCRQCEKEFSISRHKHHCRNCGHIFCNTCSSNELALPSYPKPVRVCDSCHTL: the abundance fitness was -0.854 ± 0.14. Take WLKDDEATHCRQCEKEFSISRDKHHCRNCGHIFCNTCSSNELALPSYPKPVRVCDSCHTL: the abundance fitness was -0.141 ± 0.08.

Turning to WLKDDEATHCRQCEKEFSISRLKHHCRNCGHIFCNTCSSNELALPSYPKPVRVCDSCHTL, the abundance fitness was -0.098 ± 0.031.

(Values after the Human Domainome abundance scans (Beltran et al. 2025).)
